Reference: patent publication US20240383984A1 (Genentech, published 2024)
Substitutions are numbered along the chain they refer to.

T1: human FcRH1 (full-length, on SVT2 cells) (human, UniProt Q96LA6 17-429)
T1 construct: whole, on cells; also called SVT2-FcRH1
T1 sequence (looked up): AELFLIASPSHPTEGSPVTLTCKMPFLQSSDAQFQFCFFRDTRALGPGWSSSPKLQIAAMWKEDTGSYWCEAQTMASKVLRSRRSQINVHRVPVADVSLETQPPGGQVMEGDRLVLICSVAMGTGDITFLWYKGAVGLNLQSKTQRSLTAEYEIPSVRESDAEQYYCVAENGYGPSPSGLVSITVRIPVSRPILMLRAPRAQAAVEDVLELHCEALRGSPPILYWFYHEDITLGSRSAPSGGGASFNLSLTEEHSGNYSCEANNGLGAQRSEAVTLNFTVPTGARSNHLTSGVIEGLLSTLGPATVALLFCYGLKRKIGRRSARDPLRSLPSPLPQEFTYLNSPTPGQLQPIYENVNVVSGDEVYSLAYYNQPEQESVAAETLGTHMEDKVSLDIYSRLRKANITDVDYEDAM

T2: human FcRH4 (full-length, on SVT2 cells) (human, UniProt Q96PJ5 20-515)
T2 construct: whole, on cells; also called SVT2-FcRH4
T2 sequence (looked up): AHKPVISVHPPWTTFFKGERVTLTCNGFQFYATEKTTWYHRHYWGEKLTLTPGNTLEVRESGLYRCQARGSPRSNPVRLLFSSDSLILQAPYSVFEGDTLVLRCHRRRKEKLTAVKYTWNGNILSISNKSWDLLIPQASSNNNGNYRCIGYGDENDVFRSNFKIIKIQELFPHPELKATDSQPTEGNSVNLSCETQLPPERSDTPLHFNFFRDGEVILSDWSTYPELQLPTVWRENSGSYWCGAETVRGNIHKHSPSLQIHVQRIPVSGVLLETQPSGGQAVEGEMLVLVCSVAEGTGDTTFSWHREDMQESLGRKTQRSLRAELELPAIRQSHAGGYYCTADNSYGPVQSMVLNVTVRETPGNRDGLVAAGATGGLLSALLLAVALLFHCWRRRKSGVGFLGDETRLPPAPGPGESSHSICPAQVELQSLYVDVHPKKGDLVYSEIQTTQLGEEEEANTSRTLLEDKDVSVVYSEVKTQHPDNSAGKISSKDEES

T3: human FcRH2 (full-length, on SVT2 cells) (human, UniProt Q96LA5 20-508)
T3 construct: whole, on cells; also called SVT2-FcRH2
T3 sequence (looked up): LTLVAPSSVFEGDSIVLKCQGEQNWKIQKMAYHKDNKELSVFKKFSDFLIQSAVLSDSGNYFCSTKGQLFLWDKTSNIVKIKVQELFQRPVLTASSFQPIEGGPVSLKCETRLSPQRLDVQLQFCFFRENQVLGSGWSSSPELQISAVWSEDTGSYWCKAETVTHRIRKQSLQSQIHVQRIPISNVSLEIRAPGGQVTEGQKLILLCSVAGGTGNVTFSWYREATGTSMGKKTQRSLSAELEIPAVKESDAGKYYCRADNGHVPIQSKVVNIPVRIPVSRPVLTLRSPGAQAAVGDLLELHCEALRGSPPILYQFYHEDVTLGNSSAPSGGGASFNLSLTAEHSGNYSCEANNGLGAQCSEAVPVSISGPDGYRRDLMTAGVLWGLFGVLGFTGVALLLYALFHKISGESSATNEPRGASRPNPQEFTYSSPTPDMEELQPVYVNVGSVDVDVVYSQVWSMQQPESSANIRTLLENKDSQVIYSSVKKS

T4: human FcRH5 protein fragment (soluble) (human, UniProt Q96RD9 16-851)
T4 construct: whole entry named; also called soluble human FcRH5; Human FcRH5 (BIACORE analyte)
T4 sequence: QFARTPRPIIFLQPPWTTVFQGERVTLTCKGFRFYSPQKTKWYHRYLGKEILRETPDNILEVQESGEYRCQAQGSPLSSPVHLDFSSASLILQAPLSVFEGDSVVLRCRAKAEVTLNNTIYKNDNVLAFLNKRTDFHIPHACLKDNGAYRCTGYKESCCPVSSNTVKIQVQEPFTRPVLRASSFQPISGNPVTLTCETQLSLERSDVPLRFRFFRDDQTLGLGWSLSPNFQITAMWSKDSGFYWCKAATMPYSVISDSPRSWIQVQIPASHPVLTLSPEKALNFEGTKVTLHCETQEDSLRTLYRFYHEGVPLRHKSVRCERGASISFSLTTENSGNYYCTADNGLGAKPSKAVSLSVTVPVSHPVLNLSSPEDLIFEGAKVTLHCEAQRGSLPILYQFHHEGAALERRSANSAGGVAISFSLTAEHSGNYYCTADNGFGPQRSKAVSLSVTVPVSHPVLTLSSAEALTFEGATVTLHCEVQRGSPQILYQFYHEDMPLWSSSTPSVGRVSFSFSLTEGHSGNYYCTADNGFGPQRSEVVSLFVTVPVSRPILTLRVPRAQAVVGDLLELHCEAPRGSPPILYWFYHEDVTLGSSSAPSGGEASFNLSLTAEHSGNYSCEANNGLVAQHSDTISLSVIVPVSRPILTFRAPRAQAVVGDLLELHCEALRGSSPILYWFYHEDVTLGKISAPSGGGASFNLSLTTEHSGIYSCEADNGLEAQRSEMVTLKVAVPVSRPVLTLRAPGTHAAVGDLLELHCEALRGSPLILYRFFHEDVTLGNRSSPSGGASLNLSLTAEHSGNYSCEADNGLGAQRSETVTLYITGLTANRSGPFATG

B1: hu1G7.v1.4/38E4.v1 TDB (bispecific antibody, V domains shown)
VH 1: EVQLVESGPGLVKPSETLSLTCTVSGFSLTRFGVHWVRQPPGKGLEWLGVIWRGGSTDYNAAFMSRLTISKDNSKNQVSLKLSSVTAADTAVYYCSNHYYGSSDYALDNWGQGTLVTVSS
VL 1: DIQMTQSPSSLSASVGDRVTITCKASQDVRNLVVWFQQKPGKAPKLLIYSGSYRYSGVPSRFSGSGSGTDFTLTISSLQPEDFATYYCQQHYSPPYTFGQGTKVEIK
VH 2: EVQLVQSGAEVKKPGASVKVSCKASGFTFTSYYIHWVRQAPGQGLEWIGWIYPENDNTKYNEKFKDRVTITADTSTSTAYLELSSLRSEDTAVYYCARDGYSRYYFDYWGQGTLVTVSS
VL 2: DIVMTQSPDSLAVSLGERATINCKSSQSLLNSRTRKNYLAWYQQKPGQSPKLLIYWTSTRKSGVPDRFSGSGSGTDFTLTISSLQAEDVAVYYCKQSFILRTFGQGTKVEIK
notes: knob-into-hole TDB; also called 1G7.v1.4 TDB; 1G7.v1.4 (TDB format)
B2: hu1G7.v1.13.1/38E4.v1 TDB (bispecific antibody, V domains shown)
VH 1: B1 VH 1
VL 1: B1 VL 1 with S52Y, S56T, S93Q
VH 2: B1 VH 2
VL 2: B1 VL 2
notes: knob-into-hole TDB; also called 1G7.v1.13.1 TDB
B3: hu1G7.v1.1/38E4.v1 TDB (bispecific antibody, V domains shown)
VH 1: B1 VH 1
VL 1: B1 VL 1 with H91Q
VH 2: B1 VH 2
VL 2: B1 VL 2
notes: knob-into-hole TDB; also called 1G7.v1.1 TDB
B4: hu1G7.v1.3/38E4.v1 TDB (bispecific antibody, V domains shown)
VH 1: B1 VH 1
VL 1: B1 VL 1 with L32I, H91Q
VH 2: B1 VH 2
VL 2: B1 VL 2
notes: knob-into-hole TDB; also called 1G7.v1.3 TDB
B5: hu1G7.v1.13/38E4.v1 TDB (bispecific antibody, V domains shown)
VH 1: B1 VH 1 with L48I
VL 1: B1 VL 1 with S52Y, S56T, S93Q
VH 2: B1 VH 2
VL 2: B1 VL 2
notes: knob-into-hole TDB; also called 1G7.v1.13 TDB
B6: hu1G7.v1.2/38E4.v1 TDB (bispecific antibody, V domains shown)
VH 1: B1 VH 1
VL 1: B1 VL 1 with S52Y, Y53N, H91Q, Y92F, S93Q
VH 2: B1 VH 2
VL 2: B1 VL 2
notes: knob-into-hole TDB; also called 1G7.v1.2 TDB

Target: T1, human FcRH1 (full-length, on SVT2 cells)
Experiment: FACS, SVT2 cells
Protocol: (§1) Human FcRH5, cyno FcRH5, human FcRH1, FcRH2, FcRH3, and FcRH4 transfected mouse SVT2 cells were used to test binding and cross-reactivity of FcRH5 TDBs. The method was carried out as follows. Cultured SVT2 cells were lifted using non-enzyme cell dissociation buffer (Sigma, #C5914). 1×10⁵ cells were suspended in 100 μL and incubated with FcRH5 TDBs at 3 μg/ml. […] Cells were washed twice with FACS buffer before flow cytometry analysis was carried out on a FACSCalibur.

Row | binding result | Binder
1 | no binding (tested: 3 µg/ml) | B1
2 | no binding (tested: 3 µg/ml) | B2
3 | no binding (tested: 3 µg/ml) | B3
4 | no binding (tested: 3 µg/ml) | B4
5 | no binding (tested: 3 µg/ml) | B5
6 | no binding (tested: 3 µg/ml) | B6

Target: T2, human FcRH4 (full-length, on SVT2 cells)
Experiment: FACS, SVT2 cells
Protocol: as §1

Row | binding result | Binder
7 | no binding (tested: 3 µg/ml) | B1
8 | no binding (tested: 3 µg/ml) | B2
9 | no binding (tested: 3 µg/ml) | B3
10 | no binding (tested: 3 µg/ml) | B4
11 | no binding (tested: 3 µg/ml) | B5
12 | no binding (tested: 3 µg/ml) | B6

Target: T3, human FcRH2 (full-length, on SVT2 cells)
Experiment: FACS, SVT2 cells, 3 µg/ml
Protocol: as §1

Row | binding result | Binder
13 | binds | B1
14 | binds | B2
15 | binds | B3
16 | binds | B4
17 | binds | B5
18 | binds | B6

Target: T4, human FcRH5 protein fragment (soluble)
Experiment: BIACORE, TDB format

Row | Kd [nM] | Binder
19 | 1.4 | B1
20 | 0.9 | B2
21 | 2.7 | B3
22 | 1.5 | B4
23 | 1.2 | B5
24 | 2.6 | B6
